{"source": "the nanobody polyreactivity screen of Harvey et al. (2022)", "data": [{"assay": "yeast display, Sf9 membrane polyspecificity reagent, FACS + sequencing; frameworks hold sequencing errors", "how_it_was_run": "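Galactose-induced (36–48 hours) yeast carrying a synthetic nanobody display library were exposed to 10% biotinylated, detergent-solubilized Sf9 membrane reagent at 4 °C for 1 hour. FACS followed streptavidin microbead enrichment, using low and high (top ~1%) gates for expression (anti-HA) and reagent binding (streptavidin). Colony PCR, MiSeq 2 × 250 sequencing and CDR-length filtering followed. Labels for polyreactivity reflect the gate of origin.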", "values": [{"sequence": "QVQLVESGGGLVQAGGSLRLSCAASGLTFVSYAMGWYRQAPGKERELVAAISYGGGSTNYADSVKGRFTISRDNAKNTVDLQMNSLKPEDTAVYYCAAEPGYYDEYGYWGQGTQVTVSS", "polyreactivity (PSR sort gate)": "low polyreactivity"}, {"sequence": "QVQLVESGGGLVQAGGSLRLSCAASGLTFVYNDMGWYRQAPGKERELVAGITSGGSTSYADSVKGRFTISRDNAKNTVYLQMNSLKPEDTAVYYCAAGVYALRRDYWGQGTQVTVSS", "polyreactivity (PSR sort gate)": "low polyreactivity"}, {"sequence": "QVQLVESGGGLVQAGGSLRLSCAASGLTFVYNDMGWYRQAPGKERELVAGITSGGSTYYADSVKGRFTISRDNAKNTVYLQMNSLKPEDTAVYYCAADGLSTDLFRPDSIVDYWGQGTQVTVSS", "polyreactivity (PSR sort gate)": "low polyreactivity"}, {"sequence": "QVQLVESGGGLVQAGGSLRLSCAASGLTFVYYAMGWFRQAPGKERELVAAISRGGTTYYADSVKGRFTISRDNAKNTVYLQMNSLKPEETAVYYCNAARYGFGSAYDYWGQGTQGTVSS", "polyreactivity (PSR sort gate)": "high polyreactivity"}, {"sequence": "QVQLVESGGGLVQAGGSLRLSCAASGLTFVYYAMGWYRQAPGKERELVAAISSGGSTYYADSVKGRFTISRDNAKNTVYLQMNSLKPEDTAVYYCAATYSSFRRYPGAHYRFGYWGQGTQVTVSS", "polyreactivity (PSR sort gate)": "high polyreactivity"}, {"sequence": "QVQLVESGGGLVQAGGSLRLSCAASGLTFVYYAMGWYRQAPGKERELVASIDYSGSSTYYADSVKGRFTISRDNSKNTVYLQMNSLKPEDTAVYYCAATDSGEYWGQGTQVTVSS", "polyreactivity (PSR sort gate)": "low polyreactivity"}, {"sequence": "QVQLVESGGGLVQAGGSLRLSCAASGLTFWANTMGWCRQAPGKEREFVAAITWSGGSTYYADSVKGRFTISRDNAKNTVNLQMNSLKPEDTAVYYCAADEDFAAGYSYYYWGQGSQVTVSS", "polyreactivity (PSR sort gate)": "low polyreactivity"}, {"sequence": "QVQLVESGGGLVQAGGSLRLSCAASGLTFWAYAMGWYRQAPGKEREFVAAISWSGDSTYYADSVKGRFTISRDNAKNTVYLQMNSLKPEDTAVYYCAAEWYYVYIAPYDYWGQGTQVTVSS", "polyreactivity (PSR sort gate)": "low polyreactivity"}, {"sequence": "QVQLVESGGGLVQAGGSLRLSCAASGLTFWGYAMGWYRQAPGKEREFVASISSGGGSTYYADSVKGRFTMSRDNAKNTVYLQMNSLKPEDTAVYYCNAYRTKYRNQYTYATFDYWGQGTQVTVSS", "polyreactivity (PSR sort gate)": "low polyreactivity"}, {"sequence": "QVQLVESGGGLVQAGGSLRLSCAASGLTFWSYAMGWYRQAPGKERELVAAISSGGRTYYADSVKGRFTISRDNAKNTVYLQMNSLKPEDTAVYYCNARSRRGPTKDDYWGQGTQVTVSS", "polyreactivity (PSR sort gate)": "high polyreactivity"}, {"sequence": "QVQLVESGGGLVQAGGSLRLSCAASGLTFYAYAMGWYRQAPGKERELVAAISSRGGRTYYADSVKGRFTISRDNAKNTVYLQMNRLKPEDTAVYYCAARIYRYDTTVVPRYDYWGQGTQVTVSS", "polyreactivity (PSR sort gate)": "high polyreactivity"}, {"sequence": "QVQLVESGGGLVQAGGSLRLSCAASGLTFYAYAMGWYRQAPGKERELVAHISWTGTTTYYADSVKGRFTISRDNAKNTVYLQMNSLKPEDTAVYYCAALIYRYAVAPPGYQYWLYYWGQGTLVTVSS", "polyreactivity (PSR sort gate)": "low polyreactivity"}, {"sequence": "QVQLVESGGGLVQAGGSLRLSCAASGLTFYDYAMGWYRQAPGKERELVADIDFNGGSTSYADSVKGRFTISRDNAKNTVYLQMNSLKREDTAVYYCNTRDRGDVVTGLDYWGQGTQVTVSS", "polyreactivity (PSR sort gate)": "low polyreactivity"}, {"sequence": "QVQLVESGGGLVQAGGSLRLSCAASGLTFYGNAMGWYRQAPGKERELVAAITSNGGSTYYADSVKGRFTISRDNAKNTVYLQMISLKPEDTAVYYCNVDTGYDYWYPGYGYWGQGTQVTVSS", "polyreactivity (PSR sort gate)": "low polyreactivity"}, {"sequence": "QVQLVESGGGLVQAGGSLRLSCAASGLTFYGYAMGWYRQAPGKERELVAAIRWSGGRTYYADSVKGRFTISRDNAKNTVYLQMNSLKPEDTAVYYCAADYRRYYGGDYWGQGTQVTVSS", "polyreactivity (PSR sort gate)": "low polyreactivity"}, {"sequence": "QVQLVESGGGLVQAGGSLRLSCAASGLTFYINDMGWYRQAPGKERELVAAITRGGSTNYADSVKGRLTISRDNAKNTVYLQMNSLKPEDTAVYYCAAGARYGYGYWGHGTQVTVSS", "polyreactivity (PSR sort gate)": "high polyreactivity"}, {"sequence": "QVQLVESGGGLVQAGGSLRLSCAASGLTFYKNAMGWYRQAPGKVRELVAVISSSGGSTYYADSVKGRFTISRDKAKNTVYLQMNSLKPEDTAVYYCARDLYTEYRWGRLTYDYWGQGTQVTVSS", "polyreactivity (PSR sort gate)": "low polyreactivity"}, {"sequence": "QVQLVESGGGLVQAGGSLRLSCAASGLTFYLYAMGWYRQAPGKERELVAAISRSGGSTYYADSVKGRFTISRDNAKNTVYVQMYSLKPEDTAVYYCAAVTYYPEIRKYYDWRQGTQVTVSS", "polyreactivity (PSR sort gate)": "high polyreactivity"}, {"sequence": "QVQLVESGGGLVQAGGSLRLSCAASGLTFYNNAMGWYRQAPGKERELVARISSGGSTYYADSVKGRFTISRDNAKNTVYLQMNSLKPEDTAVYYCAAGRGYWWWYGYDYWGQGTQVTVSS", "polyreactivity (PSR sort gate)": "low polyreactivity"}, {"sequence": "QVQLVESGGGLVQAGGSLRLSCAASGLTFYPYTMGWYRQAPGKERELVAAISSGGSTYYADSVKGRFTISRDNAKNTVYLQMNSLKPEDTAVYYCAARYPYFSYGYWGQGTQVTVSS", "polyreactivity (PSR sort gate)": "high polyreactivity"}, {"sequence": "QVQLVESGGGLVQAGGSLRLSCAASGLTFYQYALGWSRQAPGNDREWVAAITRGGTTNYADSVKGRFTISRDNAKNTVYLQMNSLKPEDTAVYYCNKGLVFDGYDYWGQGTQVTVSS", "polyreactivity (PSR sort gate)": "high polyreactivity"}, {"sequence": "QVQLVESGGGLVQAGGSLRLSCAASGLTFYQYAMGWYRQAPGKERELVAAISQSAGSTYYADSVKGRFTISRDNAKNTVYLQMNSLKPEDTAVYYCAARVLRLRYDYWGQGTQVTVSS", "polyreactivity (PSR sort gate)": "high polyreactivity"}, {"sequence": "QVQLVESGGGLVQAGGSLRLSCAASGLTFYRNVMGWYRQAPGKERELVAVITSGGRTNYADSVKGRFTISRDNAKNTVYLQMNSLKPEDTAVYYCNTALSSRSNKMYYWGQGTQVTVSS", "polyreactivity (PSR sort gate)": "high polyreactivity"}, {"sequence": "QVQLVESGGGLVQAGGSLRLSCAASGLTFYRYTMGWYRQAPGKERELVAAIRSSGGRTYYADSVKGRFTISRDNAKNTVYLQKNSLKPEDTAVYYCNAVRYNSVGYVYWGQGTQVTVSS", "polyreactivity (PSR sort gate)": "high polyreactivity"}, {"sequence": "QVQLVESGGGLVQAGGSLRLSCAASGLTFYSNAMRWYRQAPGKEREVVARISTGGSTYADSVKGRFTISRDNAKKTVYLQMNSLKPQDTEVYYCAKLPPRGIDDEYWGQGTQVTVSS", "polyreactivity (PSR sort gate)": "low polyreactivity"}, {"sequence": "QVQLVESGGGLVQAGGSLRLSCAASGLTFYSYAMGWYRQAPGKERELVAAISKSGGSTYYADSVKGRFTISRDNAKNSVYLQMNSLKPEDTAVYYCNALTKTGTPPDYDYWGQGTQVTVSS", "polyreactivity (PSR sort gate)": "high polyreactivity"}, {"sequence": "QVQLVESGGGLVQAGGSLRLSCAASGLTFYSYAMGWYSPAPGKERELVAAITSSGSITYYADSVKGRFTISRDNAKNTVYLQMNSLKPEDTAVYYCAARPYRVRGQRFEGNYWGQGTQVTVSS", "polyreactivity (PSR sort gate)": "high polyreactivity"}, {"sequence": "QVQLVESGGGLVQAGGSLRLSCAASGLTFYTYAMGWYRQAPGKERELVAAISSGGSTNYADSVKGRFTISRDNAKNTVYLQMNSLKPEDTAVYYCAADPSYYTYFSFDLSESDYWGLGTQVTVSS", "polyreactivity (PSR sort gate)": "low polyreactivity"}, {"sequence": "QVQLVESGGGLVQAGGSLRLSCAASGLTFYTYAMGWYRQAPGKERELVAAITYSGGRTSYADSVKGRFTISRDNAKNTVYLQMNSLKPEDTAVYYCAARTLGRRLDYGYWGQGTQVTVSS", "polyreactivity (PSR sort gate)": "low polyreactivity"}, {"sequence": "QVQLVESGGGLVQAGGSLRLSCAASGLTFYVNAMGWYRQAPGKEMELVAAITRGGSTNYADSVKGRFTISRDNAKNTVYLQMNSLKPVDTAVYYCNARKRYHSRYSGGYREGYWGQGTQVTVSS", "polyreactivity (PSR sort gate)": "low polyreactivity"}, {"sequence": "QVQLVESGGGLVQAGGSLRLSCAASGLTFYVYAMGWYRQAPGKERELVAAISGRGGRTYYADSVKGRLTISRDNAKNTVYLQMNSLKPEDTAVYYCNRDYAVFSYGEYDSWGQGTQVTVSS", "polyreactivity (PSR sort gate)": "high polyreactivity"}, {"sequence": "QVQLVESGGGLVQAGGSLRLSCAASGLTFYVYAMGWYRQAPGKERELVAAISSGGRTYYADSVKGRFTISRDNAKNTVYLQMNSLKPEDTAVYFCAAVRHRNYGYWGQGTQVTVSS", "polyreactivity (PSR sort gate)": "high polyreactivity"}]}]}
